Test results published in the domain aggregation screens of Martell et al. (2025).

Test: soluble fraction after stress (log2 fold change); higher = more stays soluble; pooled small domains, quantitative proteomics
Details: stress: pH 4
Outline: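 Custom libraries of small protein domains were pooled and measured with high-throughput quantitative proteomics after pH 4 stress. The read-out is the fold change in the amount of each domain that stays soluble after the acid stress, taken as a measure of aggregation propensity. Fold changes are on a log2 scale, and higher values mean more of the domain stayed soluble.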

| Sequence | soluble fraction (log2) |
| --- | --- |
| HMHSESAAHQRTSVELFARIPETGNLQSAQRHFDVINQFGRFPHRNKILQRPSSEQEEAFLRQPGSG | -0.0644 |
| HMHSILDDIPTVGPARRKALMRRYESLEAIRQATVDELKELPEINEASAEAIVSFFAGQAKEG | -1.13 |
| HMHSRTWTSADGVKTFEGELQSYDAASGKVSVILPNHKRITFKQEKLSADDIAWLEKNGNRP | 0.218 |
| HMHTGLTNYEYKQIKSSLLKILTQSESMRLGELVDKVDQFESEKVTTVIRFLVGNEELMLFDDTLTLKKQL | -0.232 |
| HMHTTIIVASRDIAAGSVLTSHDLSSVAWVGGAVPKGSYTAADLAVGKTAFTAFQQGEPILESRLAS | 0.317 |
| HMHVVVIDKQGALSYQGKAITLLDLKNIVIDVPKETPFLIKADKDIHLQSFVEVLDLIKTAGFKKVSLQ | -0.459 |
| HMIAANMTISQRIAAALAEYGVMSVKDIAQEVLGATDKKDTEKIRVTLTRDHGKRFRTYSDGTWSLKDWRP | 0.234 |
| HMIAAVIAQVANTNERIILEKRYLSFKSWDEIAVEMRISPRWAYTLHERALKAVDQVLSKQNNE | -2.54 |
| HMIADDLKSLEGVDQDMLRDLAEAGINTRDDLAELAIDELIEITGVSTEEAEKVIMAARAHWFEEES | -1.74 |
| HMIAKEDDGTAFLIDGKISSEEEFKTISKDDILEVFVYKETEIAQKKLDSINSINNTYYTSLIEILLKE | -0.854 |
| HMIAKIEGQISYVGNRFLIVDVSGVGYKLFVTNEAISLSKVEESIKLWVHTAVRENSIDLYG | 0.22 |
| HMIANDDEIRKVVLEVIEEQPKAVEDVKNGRDRILDFLVGQVMKKTRGKANPSLASNLMKEEIEK | -0.11 |
| HMIANNFDEFVEKVSEAERKALNMPAGQEMTQKLLEMKLAANPNLTPEEWQRTKSEFMTFLFAVFVRE | -1.02 |
| HMIAVLEEGSHFRAVNDVTGKPFGPEMVIKNGQVTAVGKTISTKPKNLLGKKEGTKFVISGKQYVIKDI | -0.103 |
| HMIDAHTALLAKRLEAKGMLPLTDKSSAEEIYAEFGISKKAFKKALGALYKERLVRIGEDGVVWI | 0.0608 |
| HMIDFIGLEAKLLSTISGEKMGNAEVIVDGNVMNIYVKSLDTSEIKFRENVLIIKQSDDKNYYLVAKP | -1.01 |
| HMIDIDTILKKYKPGRRDELIPLMQEIQEVYGHLSEEAVVKIGTYVGLSTTKIYGLATFYDQFRF | -0.874 |
| HMIDLGKSRTWHSENGRAIEARVINISEEQQTVEMQRVDGLKFELSWNQLSKADQTLLAEAAKKTALVA | 0.276 |
| HMIDLPDIDIDFAKRTGVLEHITHTPARLETGKQHNTGVYFTDIPRGVDGLATMDHKRAEQLGYFKLDML | -0.172 |
| HMIDNKIIRSLRQKRNMTLEELAKKANISVSYLSEIELGKKQPSLETINKLSQALNISREGLI | 0.22 |
| HMIDPHGSLTLDLRPRDARVEIIDSNKTYKPGVRLPMGEYAIAVSRRGYISETKRINIEYGDNRERVAL | -0.00328 |
| HMIDSDENERIKELIKALISETLKSRGVSPEVISDIKERVDRLHNEELPRFAAELKELISRN | -0.209 |
| HMIDSEEVMETIQDLGYSPVFDVKEKFYKIKEEQIGKITLEVHIILRYGMVDLVWIVRENGELLLG | -0.454 |
| HMIDTLEYIISEESKGLRADQAITMVNGEFSRSLIQKWIKKGSILVNGKKIKPRDILNLNDKVTINPEEN | -0.633 |
| HMIEDMQQWIRQIREIVSNRLDLTRNISDDEIREVISDIVMEQSRQQYMSLNEKKTLMEGVFNSMR | -0.977 |
| HMIEEIETQFLFDFGLIGHPNSAKIREKLSEALGIGYVNGKQLQKRLMMFGITKQQVVDVLTD | -2.3 |

| Sequence | soluble fraction (log2) |
| --- | --- |
| HMIEMAGGYRKGDRVELHSLKGAAEHNGKQGTVVGPQGERVKVLLDDSDSKTLALKVTNLTKLESA | 0.0709 |
| HMIEMGNRIRTLRKRRVGSQSEFAEKLDVSVVTISRIENGMTKIDAELLIKMSEVLQVPVNIILGM | -1.7 |
| HMIENPGQTFERIAGKITRTLRTGPLRIQQLDLLFSESGEQVMDVLRAMAENGEILIKDDTIQWNGHN | -0.387 |
| HMIERKLRKKEHFIASVGEKVKIKNFATETYKGELISADNEKVVVETEFGKEEITYDNILAAATYFE | -1.01 |
| HMIFNENLKSAREKKGLSQKEVAEAIGVAKSTYSLYESGNREPNVQTIKRIADVLNVSADVLLGL | 0.332 |
| HMIGELVVEDLAAASEINVDTIRYYQRLGLLEPPRRRGRRAVYDHTHLERLAEIRRLAGAGFTLAQIGRLK | -1.23 |
| HMIGILSDREAEILALLDEGLTNKAIGRRLNLAEPTVKFHLKNLYAKLGVGRRQLAVNVAKGSGLLNSD | -0.167 |
| HMIGIRLKELVLKNQSAWVGLRVSELDISRKTMIVMIRRGDKMLIPNGSTILRSGDVLLLYTR | -0.354 |
| HMIGITTANLNVRTGTDTNYTSIAILPKGTKVNILEENVKPGWYKIQFDEIYAFVSSKYIKIQS | 0.243 |
| HMIGMDMQELIGRYKGDPDEMGKIELAAMSMLKLSEDMSSDHVLQKSKLRQDGLWLLKYVQE | -1.03 |
| HMIHEQSLHKIRNFIGSLPESLRTAFTLREQDGLSYEEIGKITNTPIGTVRSRIYRARESILDHINQE | -0.2 |
| HMIHIGAQEALGEFQDEEGNLTASKKEVVAALVKKSKEVSFPTSYEYEVAARMAADEYNDAGQRMA | -0.079 |
| HMIHKTDAINLGQRLLKSSLKEFDVSLKDIPNKTLMYILSEYKFNSLDDLYREIGLGNVIPKLVALRMAP | -0.436 |
| HMIHTYVETRKVGNNDGLIRVDNKYYRVPQHLVGMKVQIQIDEATISVLQGGVMVATLDKTADVFNPQA | -1.74 |
| HMIIDPQIRTLWTSQIIDILKSNPKRSIRSILELYPSNKESWVLIILQELIGEEKIIRDLDYLYFNK | -1.26 |
| HMIIIMKMGADESQVQETIKRIKDLGFNTHLSKGENRTIIGVIGDVSSIDESDVERLRATPYIAEVVRVS | 0.417 |
| HMIIIPKKDYDVSQLDNLVSWLKDRGLEVHISRGENLTVIGLIGDTSKIDIDLIRSLDVVEEVKRIQ | -1.31 |
| HMIIVMASSKKEDVAHVVHKIEELGYKAHVIVGVERTVVAAVGDERGKERLISLEALPHVEKVFPILK | -0.167 |
| HMIKEVEYSQFLQMTDQGEVGKVEINEQENSILFTDKAEKNIYKTGMVEDAELSMRLYEAGIPFSGQI | -2.29 |
| HMIKEYEVLNYVTYEYDEIKKKLEEDFGIIVLMKEAYSDETPAGIIMDQDVEQGRIFKEGATNTITFTVS | -1.2 |
| HMIKLSEAEWKVMKLLWEESPKTMMQITNLLKETTGWTKHTVMTFLKRMEEKKAIHYEEGGRAKLYYP | -0.0902 |
| HMIKVASVDGASDELAHEIREIMPLDFPVSYFDLDIKYLHKVLNDIPAVESAAIKVTVSGVLQIDISER | 0.248 |
| HMILALAISSEEDDARIYATYADRLREAYPASARVFEGMVDEEHEHRRRLIDLFQRRFGDTIPLVRREHV | -0.836 |
| HMILNPADEEKMNLINFELQQRGLEINDKEMQYIFTHHSRDLNSLLNLAEKLDEISHQEKKSISINLIKKI | -0.158 |
| HMILNWSEYTRSEIIELARDLSPDKYMIIDDINTYSKMKLLPSQAFIAEMFGSLRQFQKEAWGRE | -1.27 |
| HMILPKFNQLLGQMGENIKLARKRRKLTAVQVSERAGIARSTLYLIEKGDASVSLGAYFNVLRVLG | -0.214 |

| Sequence | soluble fraction (log2) |
| --- | --- |
| HMIMEVDYGTFMKMTEENAIGRVQMDSTEIIFTDKENTQVYSTGIMYDPDLTQRLYDAGAVFA | -1.58 |
| HMIMGTIEKRGPFSFRIGVQVRLPDGSWEWIRDTIHVSPDLSARAARKQAEMALARLEADVYEGKRKPD | -0.0141 |
| HMIMLDRILKIMDYNKFTPSEFADVLEIDRSRLSHILNGRNKPSLEIVMKILEKFPEISSDWLLFGSGNML | -2.01 |
| HMIMNEYEELRDRYLIGQIWKIGDLIEAKGIEGKIIQRGTNYVTFNDNNGKVHKAWLHEIKYEQ | -0.559 |
| HMIMNKEIPVVADEFVEKEFGTGAVKLTPAHDPNDYESGERHGLEVVEVFDETGKMNDLVPEYEG | -0.0198 |
| HMIMTGSIQEKNGKYYTVLNIKDKNGKYKKKWQTTGLPVKGNKRKAEQILRRRIAEYEANQL | ≥ 0.43 |
| HMIMTHSALLEKDGFDIVKVHFERPNDDGFDFLDMTLPGEIVYKSFGFSEDEILKLKRYAKNNSSLIWDF | -1.87 |
| HMINEDMTQSDRMELWGRLIDVVEDWLAEKGITEEDIPNEEREGVEDAAIIFGDDYDYLADRFSEVIGISR | -1.99 |
| HMINFKVKNVQDVGSRLDKFLVTNIPEFSRSKIQKHIKNGKVMVNGLLKKTGYKLEINDEINILNN | 0.198 |
| HMINLDYILELIFEKNNKTKDKTALIEEIRGVIRASVGNRAKESLIVDFINDTDLDTITDKASIIESFFEY | -2.64 |
| HMINLTKVGNFISIIKLQQIWTIDELLKKVDINYDELLYLLTILSDIYSKNGEYFFDFDIDAENNKILFNN | -0.3 |
| HMINVGYKFKQIRENAGLTLKQVSAMSGLSVSFISQIERGVVDPSWSSLKKISAALNIKLKDLF | -0.449 |
| HMIPDLPAIGENLYRERKRQQLSMAELAAASGISKAMLSQIEADKVNPTIATLWKIAHALHVDLESLISGG | -0.0815 |
| HMIPDPEKVMFDGGIRLLTQAGITEGKARSILGKWKRDHETERIIAALGAAQREGAIEPVSFIERVLRN | -0.475 |
| HMIPKIIDITDLNEEVREVIEEYMKRKRVEKYHIYQDSKGQIFIISGSAIIRYDSKLNNLYYL | -0.395 |
| HMIPLKTEAIPVSYGDGAAIIRSLAVAFPSRTFHWDAQTRRIIGQALDEEWQVIRSLVWQLDIP | -1.06 |
| HMIPLSDEETILLKLLEATETHLDALIRGSQLSAAKVSVVLMGMEMKRLVKRLPGQMYQRWD | -1.55 |
| HMIPRNLEDLVRENQIGLVILKIVEIIGEDNIRDLDPETIYFINRILNELNLKKIRNNILSEALPPR | -0.8 |
| HMIPSEQYNTALTEIGLSTRAHNSLRRAGIMTLGQLIEKTRDGLPPLPGFGDKSQVEVQDLLTGLGYPI | -1.03 |
| HMIPSGISEHPISKLPLSMSIIHRLELAGIKTIGDITGENFSRLQEIPRIGKVTAKRILEAIQSYSEQLP | -0.273 |
| HMIPYQDPLPKGAEESLLSKYPGFEITGVHFVNDTNFIGYKVRLERGEDREEISLDVNGKFL | -0.169 |
| HMIQADFIPQVEQRLADRGLSMSGDVMAAFLDRAGYGLRHVSNEIEKLSLYLGDRKKVTVEDVVQMVAPVR | -0.415 |
| HMIQAGDLVFIWNPKKGDNFLIKVTPGMSQGTHFGQIKHTELMEREYGEGIVTPKGEVYYLLRPTLAGYTR | -1.3 |
| HMIQIGEQIRYYRTKIGISQEALALMADINPAYIGQIERGIKSPTVNTIKKIANAMGINLHTLFT | -0.434 |
